Data on one protein can be found in article PMC12513289 (The Journal of Biological Chemistry, 2025).

In general, Kd refers to the concentration at which binding is half-saturated. A low value points to a tighter complex.

This data set concerns the molecule itself. Kind of data set: mass photometry, R534* homodimer.

B1: human AsnRS R534∗ (ΔR534-P548), N-terminal 6xHis tag (enzyme, UniProt O43776 1-533, looked up)
chain: MVLAELYVSDREGSDATGDGTKEKPFKTGLKALMTVGKEPFPTIYVDSQKENERWNVISKSQLKNIKKMWHREQMKSESREKKEAEDSLRREKNLEEAKKITIKNDPSLPEPKCVKIGALEGYRGQRVKVFGWVHRLRRQGKNLMFLVLRDGTGYLQCVLADELCQCYNGVLLSTESSVAVYGMLNLTPKGKQAPGGHELSCDFWELIGLAPAGGADNLINEESDVDVQLNNRHMMIRGENMSKILKARSMVTRCFRDHFFDRGYYEVTPPTLVQTQVEGGATLFKLDYFGEEAFLTQSSQLYLETCLPALGDVFCIAQSYRAEQSRTRRHLAEYTHVEAECPFLTFDDLLNRLEDLVCDVVDRILKSPAGSIVHELNPNFQPPKRPFKRMNYSDAIVWLKEHDVKKEDGTFYEFGEDIPEAPERLMTDTINEPILLCRFPVEIKSFYMQRCPEDSRLTESVDVLMPNVGEIVGGSMRIFDSEEILAGYKREGIDPTPYYWYTDQRKYGTCPHGGYGLGLERFLTWILNRYHI
notes: also called His-R534∗; R534∗ mutant; source: E. coli BL21(DE3) or BL21 ClearColi, purified (Ni-NTA, heparin, SEC); not shown: His6, N-terminal, kept
With B1, the Kd amounted to 54.4 nM.
